Measured values: US7067474B1, “Agents for treating human illnesses based on β-catenin, and the production and use thereof” (Max-Delbruck-Centrum fur Molekulare Medizin, priority 1998, dated 2006)

Molecular target: T1, β-catenin produced recombinantly in bacteria with N-terminal histidine sequence (Homo sapiens (Human), UniProt P35222 2-781)
T1 construct: Soluble partner in the ELISA (50-100 ng), detected with antibody PA2
T1 sequence: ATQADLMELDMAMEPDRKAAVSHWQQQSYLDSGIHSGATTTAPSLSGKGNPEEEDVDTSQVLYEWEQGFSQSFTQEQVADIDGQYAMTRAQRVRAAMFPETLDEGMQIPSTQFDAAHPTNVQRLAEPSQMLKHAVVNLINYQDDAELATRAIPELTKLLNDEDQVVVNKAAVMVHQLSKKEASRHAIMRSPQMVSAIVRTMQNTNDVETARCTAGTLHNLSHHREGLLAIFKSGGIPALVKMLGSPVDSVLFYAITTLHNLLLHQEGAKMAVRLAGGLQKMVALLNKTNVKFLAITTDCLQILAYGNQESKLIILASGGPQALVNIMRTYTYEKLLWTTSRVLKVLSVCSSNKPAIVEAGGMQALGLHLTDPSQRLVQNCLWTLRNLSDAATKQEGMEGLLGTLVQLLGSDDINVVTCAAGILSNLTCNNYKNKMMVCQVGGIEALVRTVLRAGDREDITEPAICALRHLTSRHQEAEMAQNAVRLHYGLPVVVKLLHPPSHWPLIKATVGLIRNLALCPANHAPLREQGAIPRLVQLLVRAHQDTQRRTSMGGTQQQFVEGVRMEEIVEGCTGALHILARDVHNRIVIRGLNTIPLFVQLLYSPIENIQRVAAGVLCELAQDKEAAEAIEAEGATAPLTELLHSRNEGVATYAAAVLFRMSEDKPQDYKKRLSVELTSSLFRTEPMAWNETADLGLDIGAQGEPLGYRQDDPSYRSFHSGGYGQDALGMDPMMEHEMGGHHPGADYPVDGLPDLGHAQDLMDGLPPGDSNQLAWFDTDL
Test: competition ELISA, LEF-1 coated, β-catenin in solution, detection with antibody PA2

B1: synthetic peptide of the minimum binding domain of LEF-1 (10-34) (peptide, UniProt P27782 10-34, looked up)
peptide: GGDPELCATDEMIPFKDEGDPQKEK
notes: range 10-34; the legend prints 10-34
B1 was tested, and the IC50 was 4 µM.
